Measured values taken from PMC6748655 (Cell host & microbe, 2019).

Legend:
[1] = biological target: HA on intact H3N2 A/Aichi/2/1968 (X31) virions (Influenza A virus H3N2 A/Aichi/2/1968 …, UniProt P03437, strain); test: ELISA
representative H4 HA = representative H4 HA (Influenza A virus H4, strain not named …, UniProt M1UPL4, strain); test: ELISA

B1: FL-1066 IgG (human IgG1) (antibody, V domains shown)
VH: DVKLVESGEGLVKPGGSLKLSCAASGFTFSGYDMSWVRQTPEKRLEWVAYISSGGDYIYYADTVKGRFTISRDNARNTLYLQMSSLKSEDTAMYYCTRDSDYYGSRVWFAYWGQGTLVTVSG
VL: QAVVTQESALTTSPGETVTLTCRSSTGAVTTSNYANWVQEKPDHLFTGLIGGTNNRAPGVPARFSGSLIGDKAALTITGAQTEDEAIYFCALWFSNHWVFGGGTKLTVL
B1: binds [1]; binds (representative H4 HA).
